Assay results from publication PMC9306000.

Substrate: CC(C)=C[C@@H]1[C@@H](C(=O)SCCNC(=O)CCNC(=O)[C@H](O)C(C)(C)COP(=O)(O)OP(=O)(O)OC[C@H]2O[C@@H](n3cnc4c(N)ncnc43)[C@H](O)[C@@H]2OP(=O)(O)O)C1(C)C
Test: purified protein
Details: 1 mM (S)-pyrethrolone, 50 mM Tris-HCl pH 7.5, 25 °C, 10 min

B1: TcGLIP (Tanacetum cinerariifolium) (protein)
chain: SQQAAALFIFGDSVFDPGNNNHINTHVNFKANFWPYGQSYFSSPTGRFSDGRIIPDFIAEYASLPIIPAYLEPNNDFTHGANFASAGAGALIASHAGLAVGLQTQLRYFGDLVDHYRQNLGDIKSRQLLSDAVYLFSCGGNDYQSPYYPYTQEQYVDIVIGNMTNVIKGIYEKGGRKFGVVNVPLIGCWPGMRAKQPGNTCNTEVDELTRLHNQAFAKRLEQLEKQLEGFVYAKFDLSTAILNRMKNPSKYGFKEGESACCGSGPFGGNYDCGRIKEFGLCDNATEYFFFDPFHPNELASRQFAEMFWDGDSMVTQPYNLKALFEGKPSTKYLPNDEL
Km: 520 ± 95 µM | Vmax: 0.14 µmol/min/mg | Vmax/Km: 269 µL/min/mg
